US20210032299A1 (Eli Lilly, published 2021)
Starred links: 1 amine or outer side, 2 acyl side, 3 side chain; linkers in the order of their positions; H or OH if unused. Non-standard residues stand in square brackets, D forms with d. Groups on a side chain read outwards from the residue. No end group written: not given here. *: point of attachment. C20 diacid = O=C(O)CCCCCCCCCCCCCCCCCCC(=O)*; C18 diacid = O=C(O)CCCCCCCCCCCCCCCCC(=O)*; αMePhe(2-F) = C[C@](N)(Cc1ccccc1F)C(=O)O; γGlu = O=C(O)[C@H](CCC(=O)[*:2])N[*:1]; 4Pal = N[C@@H](Cc1ccncc1)C(=O)O; αMeL = CC(C)C[C@](C)(N)C(=O)O; Orn = NCCC[C@H](N)C(=O)O; AEEA = NCCOCCOCC(=O)O; Aib = CC(C)(N)C(=O)O

Assays:
[1] = biological target: human GLP-1 receptor (human, UniProt P43220 24-463); assay: cell-based or functional assay
[2] = biological target: human glucagon receptor (human, UniProt P47871 26-477); assay: cell-based or functional assay
Sequence of human glucagon receptor (P47871 26-477): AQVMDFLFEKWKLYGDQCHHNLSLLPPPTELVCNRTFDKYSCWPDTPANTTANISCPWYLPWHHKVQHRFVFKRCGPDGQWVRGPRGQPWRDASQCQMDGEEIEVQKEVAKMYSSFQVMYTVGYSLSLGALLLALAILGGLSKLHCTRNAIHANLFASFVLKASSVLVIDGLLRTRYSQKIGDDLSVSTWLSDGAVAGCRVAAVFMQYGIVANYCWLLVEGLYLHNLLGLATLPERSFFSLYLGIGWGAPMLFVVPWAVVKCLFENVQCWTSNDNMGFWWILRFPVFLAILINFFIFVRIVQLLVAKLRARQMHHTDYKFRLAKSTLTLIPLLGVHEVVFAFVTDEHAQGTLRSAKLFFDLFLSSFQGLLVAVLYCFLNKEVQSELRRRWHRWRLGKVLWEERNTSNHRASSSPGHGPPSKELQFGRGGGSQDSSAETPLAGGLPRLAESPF

[3] = biological target: T1, human glucose-dependent insulinotropic peptide receptor (human, UniProt P48546 22-466); assay: cell-based or functional assay
T1 sequence (looked up): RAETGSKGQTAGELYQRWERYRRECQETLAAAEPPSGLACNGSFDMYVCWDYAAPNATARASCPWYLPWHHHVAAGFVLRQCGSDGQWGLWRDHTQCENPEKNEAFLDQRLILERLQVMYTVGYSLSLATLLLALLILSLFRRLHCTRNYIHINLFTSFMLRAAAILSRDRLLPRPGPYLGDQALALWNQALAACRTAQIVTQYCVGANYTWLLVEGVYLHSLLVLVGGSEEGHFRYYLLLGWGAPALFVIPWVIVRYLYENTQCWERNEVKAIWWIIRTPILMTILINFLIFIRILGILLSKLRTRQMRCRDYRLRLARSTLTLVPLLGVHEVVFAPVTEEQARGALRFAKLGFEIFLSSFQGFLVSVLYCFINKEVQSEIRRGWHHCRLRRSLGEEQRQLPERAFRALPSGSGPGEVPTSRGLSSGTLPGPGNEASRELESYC

[4] = biological target: T2, human glucose-dependent insulinotropic polypeptide (GIP) receptor (human, UniProt P48546 22-466); assay: SPA, displacement of [125I]-GIP from hGIPR membranes, 0.1% bacitracin
T2 construct: whole, on cells; Assayed as crude membranes of stably transfected CHO cells; also called hGIPR; human GIP receptor
T2 sequence (looked up): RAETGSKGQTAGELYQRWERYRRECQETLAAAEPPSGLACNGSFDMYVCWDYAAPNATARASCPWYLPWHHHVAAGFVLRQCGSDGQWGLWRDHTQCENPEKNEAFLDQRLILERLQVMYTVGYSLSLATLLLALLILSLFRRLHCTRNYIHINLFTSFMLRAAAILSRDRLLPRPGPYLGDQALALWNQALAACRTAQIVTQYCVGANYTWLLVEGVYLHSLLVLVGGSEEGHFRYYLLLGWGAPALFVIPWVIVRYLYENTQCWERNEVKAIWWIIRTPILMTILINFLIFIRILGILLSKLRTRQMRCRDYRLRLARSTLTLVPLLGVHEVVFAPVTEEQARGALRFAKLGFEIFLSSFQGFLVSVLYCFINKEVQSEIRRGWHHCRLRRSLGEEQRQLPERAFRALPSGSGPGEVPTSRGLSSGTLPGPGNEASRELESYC
Method: The binding buffer contains 25 mM HEPES, pH 7.4, 2.5 mM CaCl₂, 1 mM MgCl₂, 0.1% (w/v) bacitracin, 0.003% (w/v) TWEEN®-20, and Roche Complete™ Protease Inhibitors without EDTA. […] Plates are sealed and mixed on a plate shaker (setting 6) for 1 minute and read with a PerkinElmer Trilux MicroBeta® scintillation counter after 2.5 to 12 hours of incubation/settling time at room temperature.
Data are analyzed using four-parameter (curve maximum, curve minimum, […], Hill slope) nonlinear regression routines (Genedata Screener, version 12.0.4, Genedata AG, Basal, Switzerland). […] Values for Kᵢ are reported as the geometric mean, with error expressed as the standard error of the mean (SEM) and n is equal to the number of independent replicates (determined in assays performed on different days). Geometric Means are calculated as follows: […]

Row | Binder | hGLP1R cAMP Rel EC50 [1] [nM] | hGcgR cAMP Rel EC50 [2] [µM] | hGIPR cAMP Rel EC50 [3] [nM] | Ki [4] [nM]
1 | Y[dA]EGTFISDYSILLDKIAQ[Aib]DFVNWK([AEEA-AEEA-γGlu-C18 diacid])LAQGPSSGAPPPS-NH2 (N-terminus assumed; SMILES CC[C@H](C)[C@H](NC(=O)[C@H](CCCCN)NC(=O)[C@H](CC(=O)O)NC(=O)[C@H](CC(C)C)NC(=O)[C@H](CC(C)C)NC(=O)[C@@H](NC(=O)[C@H](CO)NC(=O)[C@H](Cc1ccc(O)cc1)NC(=O)[C@H](CC(=O)O)NC(=O)[C@H](CO)NC(=O)[C@@H](NC(=O)[C@H](Cc1ccccc1)NC(=O)[C@@H](NC(=O)CNC(=O)[C@H](CCC(=O)O)NC(=O)[C@@H](C)NC(=O)[C@@H](N)Cc1ccc(O)cc1)[C@@H](C)O)[C@@H](C)CC)[C@@H](C)CC)C(=O)N[C@@H](C)C(=O)N[C@@H](CCC(N)=O)C(=O)NC(C)(C)C(=O)N[C@@H](CC(=O)O)C(=O)N[C@@H](Cc1ccccc1)C(=O)N[C@H](C(=O)N[C@@H](CC(N)=O)C(=O)N[C@@H](Cc1c[nH]c2ccccc12)C(=O)N[C@@H](CCCCNC(=O)COCCOCCNC(=O)COCCOCCNC(=O)CC[C@H](NC(=O)CCCCCCCCCCCCCCCCC(=O)O)C(=O)O)C(=O)N[C@@H](CC(C)C)C(=O)N[C@@H](C)C(=O)N[C@@H](CCC(N)=O)C(=O)NCC(=O)N1CCC[C@H]1C(=O)N[C@@H](CO)C(=O)N[C@@H](CO)C(=O)NCC(=O)N[C@@H](C)C(=O)N1CCC[C@H]1C(=O)N1CCC[C@H]1C(=O)N1CCC[C@H]1C(=O)N[C@@H](CO)C(N)=O)C(C)C) [Example 93, listing 1 of 2 here] | 884 | > 5 | 0.00482 | 
2 | Y[dA]EGTFISDYSILLDKIAQ[Aib]DFVNWK([AEEA-AEEA-γGlu-C18 diacid])LAQGPSSGAPPPS-NH2 (N-terminus assumed; SMILES CC[C@H](C)[C@H](NC(=O)[C@H](CCCCN)NC(=O)[C@H](CC(=O)O)NC(=O)[C@H](CC(C)C)NC(=O)[C@H](CC(C)C)NC(=O)[C@@H](NC(=O)[C@H](CO)NC(=O)[C@H](Cc1ccc(O)cc1)NC(=O)[C@H](CC(=O)O)NC(=O)[C@H](CO)NC(=O)[C@@H](NC(=O)[C@H](Cc1ccccc1)NC(=O)[C@@H](NC(=O)CNC(=O)[C@H](CCC(=O)O)NC(=O)[C@@H](C)NC(=O)[C@@H](N)Cc1ccc(O)cc1)[C@@H](C)O)[C@@H](C)CC)[C@@H](C)CC)C(=O)N[C@@H](C)C(=O)N[C@@H](CCC(N)=O)C(=O)NC(C)(C)C(=O)N[C@@H](CC(=O)O)C(=O)N[C@@H](Cc1ccccc1)C(=O)N[C@H](C(=O)N[C@@H](CC(N)=O)C(=O)N[C@@H](Cc1c[nH]c2ccccc12)C(=O)N[C@@H](CCCCNC(=O)COCCOCCNC(=O)COCCOCCNC(=O)CC[C@H](NC(=O)CCCCCCCCCCCCCCCCC(=O)O)C(=O)O)C(=O)N[C@@H](CC(C)C)C(=O)N[C@@H](C)C(=O)N[C@@H](CCC(N)=O)C(=O)NCC(=O)N1CCC[C@H]1C(=O)N[C@@H](CO)C(=O)N[C@@H](CO)C(=O)NCC(=O)N[C@@H](C)C(=O)N1CCC[C@H]1C(=O)N1CCC[C@H]1C(=O)N1CCC[C@H]1C(=O)N[C@@H](CO)C(N)=O)C(C)C) [Example 93, listing 2 of 2 here] |  |  |  | 0.043
3 | Y[Aib]EGTFISDYSI[αMeL]LD[Orn]IHQ[Aib]EFVE[4Pal]K([AEEA-AEEA-γGlu-C20 diacid])LEAGPSSGAPPPS-NH2 (N-terminus assumed; SMILES CC[C@H](C)[C@H](NC(=O)[C@H](CCCN)NC(=O)[C@H](CC(=O)O)NC(=O)[C@H](CC(C)C)NC(=O)[C@](C)(CC(C)C)NC(=O)[C@@H](NC(=O)[C@H](CO)NC(=O)[C@H](Cc1ccc(O)cc1)NC(=O)[C@H](CC(=O)O)NC(=O)[C@H](CO)NC(=O)[C@@H](NC(=O)[C@H](Cc1ccccc1)NC(=O)[C@@H](NC(=O)CNC(=O)[C@H](CCC(=O)O)NC(=O)C(C)(C)NC(=O)[C@@H](N)Cc1ccc(O)cc1)[C@@H](C)O)[C@@H](C)CC)[C@@H](C)CC)C(=O)N[C@@H](Cc1c[nH]cn1)C(=O)N[C@@H](CCC(N)=O)C(=O)NC(C)(C)C(=O)N[C@@H](CCC(=O)O)C(=O)N[C@@H](Cc1ccccc1)C(=O)N[C@H](C(=O)N[C@@H](CCC(=O)O)C(=O)N[C@@H](Cc1ccncc1)C(=O)N[C@@H](CCCCNC(=O)COCCOCCNC(=O)COCCOCCNC(=O)CC[C@H](NC(=O)CCCCCCCCCCCCCCCCCCC(=O)O)C(=O)O)C(=O)N[C@@H](CC(C)C)C(=O)N[C@@H](CCC(=O)O)C(=O)N[C@@H](C)C(=O)NCC(=O)N1CCC[C@H]1C(=O)N[C@@H](CO)C(=O)N[C@@H](CO)C(=O)NCC(=O)N[C@@H](C)C(=O)N1CCC[C@H]1C(=O)N1CCC[C@H]1C(=O)N1CCC[C@H]1C(=O)N[C@@H](CO)C(N)=O)C(C)C) [Example 122] | > 5000 | > 5 | 0.01 | 
4 | Y[Aib]EGT[αMePhe(2-F)]ISDYSILLDKIHQ[Aib]DFVE[4Pal]K([AEEA-AEEA-γGlu-C20 diacid])LEQGPSSGAPPPS-NH2 (N-terminus assumed; SMILES CC[C@H](C)[C@H](NC(=O)[C@H](CO)NC(=O)[C@H](Cc1ccc(O)cc1)NC(=O)[C@H](CC(=O)O)NC(=O)[C@H](CO)NC(=O)[C@@H](NC(=O)[C@](C)(Cc1ccccc1F)NC(=O)[C@@H](NC(=O)CNC(=O)[C@H](CCC(=O)O)NC(=O)C(C)(C)NC(=O)[C@@H](N)Cc1ccc(O)cc1)[C@@H](C)O)[C@@H](C)CC)C(=O)N[C@@H](CC(C)C)C(=O)N[C@@H](CC(C)C)C(=O)N[C@@H](CC(=O)O)C(=O)N[C@@H](CCCCN)C(=O)N[C@H](C(=O)N[C@@H](Cc1c[nH]cn1)C(=O)N[C@@H](CCC(N)=O)C(=O)NC(C)(C)C(=O)N[C@@H](CC(=O)O)C(=O)N[C@@H](Cc1ccccc1)C(=O)N[C@H](C(=O)N[C@@H](CCC(=O)O)C(=O)N[C@@H](Cc1ccncc1)C(=O)N[C@@H](CCCCNC(=O)COCCOCCNC(=O)COCCOCCNC(=O)CC[C@H](NC(=O)CCCCCCCCCCCCCCCCCCC(=O)O)C(=O)O)C(=O)N[C@@H](CC(C)C)C(=O)N[C@@H](CCC(=O)O)C(=O)N[C@@H](CCC(N)=O)C(=O)NCC(=O)N1CCC[C@H]1C(=O)N[C@@H](CO)C(=O)N[C@@H](CO)C(=O)NCC(=O)N[C@@H](C)C(=O)N1CCC[C@H]1C(=O)N1CCC[C@H]1C(=O)N1CCC[C@H]1C(=O)N[C@@H](CO)C(N)=O)C(C)C)[C@@H](C)CC) [Example 121] | > 5000 | > 5 | 0.0196 | 
5 | Y[dA]EGTFISDYSILLDKK([AEEA-AEEA-γGlu-C20 diacid])HQQEFVNWLLAQGPSSGAPPPS-NH2 (N-terminus assumed; SMILES CC[C@H](C)[C@H](NC(=O)[C@H](CO)NC(=O)[C@H](Cc1ccc(O)cc1)NC(=O)[C@H](CC(=O)O)NC(=O)[C@H](CO)NC(=O)[C@@H](NC(=O)[C@H](Cc1ccccc1)NC(=O)[C@@H](NC(=O)CNC(=O)[C@H](CCC(=O)O)NC(=O)[C@@H](C)NC(=O)[C@@H](N)Cc1ccc(O)cc1)[C@@H](C)O)[C@@H](C)CC)C(=O)N[C@@H](CC(C)C)C(=O)N[C@@H](CC(C)C)C(=O)N[C@@H](CC(=O)O)C(=O)N[C@@H](CCCCN)C(=O)N[C@@H](CCCCNC(=O)COCCOCCNC(=O)COCCOCCNC(=O)CC[C@H](NC(=O)CCCCCCCCCCCCCCCCCCC(=O)O)C(=O)O)C(=O)N[C@@H](Cc1c[nH]cn1)C(=O)N[C@@H](CCC(N)=O)C(=O)N[C@@H](CCC(N)=O)C(=O)N[C@@H](CCC(=O)O)C(=O)N[C@@H](Cc1ccccc1)C(=O)N[C@H](C(=O)N[C@@H](CC(N)=O)C(=O)N[C@@H](Cc1c[nH]c2ccccc12)C(=O)N[C@@H](CC(C)C)C(=O)N[C@@H](CC(C)C)C(=O)N[C@@H](C)C(=O)N[C@@H](CCC(N)=O)C(=O)NCC(=O)N1CCC[C@H]1C(=O)N[C@@H](CO)C(=O)N[C@@H](CO)C(=O)NCC(=O)N[C@@H](C)C(=O)N1CCC[C@H]1C(=O)N1CCC[C@H]1C(=O)N1CCC[C@H]1C(=O)N[C@@H](CO)C(N)=O)C(C)C) [Example 13] |  |  |  | 0.237
